B1: LINE1-full (parent)
chain: UACGUAGGUGGUUUUCCCCUGAUAGUGCUAAGGGGGCCUGGAAGUUUGGACUGGGCAGAGCUCAACACAGCGUGGCAAAGUGGCUGUGGCUAGACUGCCUCUCUGGAUUCCUCGUCACUCAGCAGGGCAUCUCUGAGAGAAAUGCC

The variants in the data set derive from B1. Briefly: self-cleavage, relative activity (ratio to wild type); higher = more cleavage; in vitro, sequencing; the parent is a self-cleaving ribozyme.
Regarding U20G A140G, the self-cleavage is 0.96.
The figure for U20G A140U is 1.23.
The figure for G21A C120A is 1.11; for U20A U115A it is 2.02; for U20C A67U it is 0.15.
The figure for U20C A67G is 0.74.
A22C A129G: the self-cleavage is 1.39.
Regarding U20C A124G, the self-cleavage amounted to 1.06.
To U20C A124U belongs 1.17; to U20G G135A, 0.98; to U20A C51U, 0.77.
Turning to U20A C51A, the self-cleavage turned out to be 0.82.
To U20A A141G belongs 1.43; to U20A A78G, 1.39.
As for U20C G86A, the self-cleavage was 0.11.
To C19U U96C belongs 0.18; to G21A U73C, 1.41.
The figure for U20C U85A is 0.11; for U20C U85C it is 0.38; for U20C A138U it is 1.42.
The figure for U20C A138G is 1.55; for U20C A78G it is 1.52; for U20C G32U it is 0.94.
In the case of U20G A129C, the self-cleavage was 1.95.
The figure for U20G A78G is 1.1; for U20C G40A it is 1.1.
The figure for U20A A140U is 1.7; for U20A A140G it is 1.16.
To U20A U109C belongs 1.25.
For U20A U109A, the self-cleavage turned out to be 0.88.
For the variant U20A U132C, the self-cleavage amounted to 1.49.
Turning to U20C C101U, the self-cleavage was 1.11.
Turning to U20A G25A, the self-cleavage came to 0.37.
On to U20G U29C, for which the self-cleavage came to 1.36.
Turning to U20G U29A, the self-cleavage amounted to 0.8.
For the variant U20C A117C, the self-cleavage came out at 1.64.
The figure for U20C A117U is 1.61; for U20A U46C it is 1.49; for U20A U46A it is 0.96.
The figure for U20G G127A is 1.37.
In the case of U20C G48U, the self-cleavage turned out to be 1.27.
To G21A U100C belongs 1.72; to U20A U108C, 1.95.
To U20C C84G belongs 0.09; to G21A U132C, 1.63; to U20A G97C, 0.34.
Regarding U20A A136G, the self-cleavage was 0.93.
To U20A A30G belongs 0.9.
To G21A A57C belongs 0.09.
For G21A A57U, the self-cleavage stood at 0.02.
Take U20C G41A: the self-cleavage came to 1.27.
To G21A U102C belongs 1.79; to C19U A140U, 0.82.
Take C19U A140G: the self-cleavage was determined as 0.92.
On to C19U U62C, for which the self-cleavage came to 0.06.
The figure for G21A A59U is 0.57.
For the variant U20A G32C, the self-cleavage stood at 1.33.
For G21A U91A, the self-cleavage is 0.37.
Turning to G21A U119C, the self-cleavage is 1.25.
In the case of U20A C90U, the self-cleavage turned out to be 0.02.
Regarding C19U C116U, the self-cleavage is 0.9.
To G21U C56G belongs 0.02; to G21C U47A, 0.91.
To U20G G27A belongs 0.92; to C19U U39C, 0.65; to C19U U39A, 1.07.
For G21U U81C, the self-cleavage was determined as 1.01.
The figure for C19U C120U is 1.25; for U20C C66U it is 0; for U20C U104A it is 1.17.
To U20A A59G belongs 0.15.
To C19U A121C belongs 1.02.
As for U20A C111A, the self-cleavage came to 1.19.
To C19U G93A belongs 0.07.
The figure for U20C U96A is 0.12; for U20A C63U it is 0.45.
The figure for C19U G34A is 0.75; for C19U A142G it is 1.06.
With U20C A30G, the self-cleavage was found to be 1.39.
To U20C A30U belongs 1.18; to A22C A124G, 1.92.
The figure for C19U U112C is 1.13; for C19U U112A it is 1.06.
The figure for G21A C118U is 1.07; for G21A A124G it is 0.9; for U20C A42G it is 1.25.
For the variant U20C A59U, the self-cleavage came to 0.82.
As for U20G U73C, the self-cleavage was found to be 1.39.
On to U20G U73G, for which the self-cleavage amounted to 0.49.
To U20A U143C belongs 0.9.
The figure for U20A U143A is 1.43; for C19U C76U it is 1.64; for U20A U29C it is 1.09.
To U20C G135A belongs 1.48.
With U20A U85A, the self-cleavage came out at 0.11.
The figure for U20A U85G is 0.1; for U20G U39C it is 0.98; for U20G U85G it is 0.1.
The figure for U20G U85C is 0.18; for U20C G33C it is 0.74.
To U20C G33A belongs 0.99.
For the variant U20C A140U, the self-cleavage is 0.95.
To U20C A140C belongs 2.05; to C19U U102C, 0.73.
Take C19U G75A: the self-cleavage was found to be 1.11.
With U20A C131U, the self-cleavage was determined as 1.36.
The figure for U20A U62A is 0.07.
To U20C U39G belongs 0.8.
For G21U A79G, the self-cleavage is 1.32.
To U20A C68U belongs 0.35.
Consider U20A A43C, for which the self-cleavage was determined as 0.84.
The figure for U20A A43G is 1.12; for U20C C133U it is 1.16.
U20C U47C: the self-cleavage came to 1.57.
Regarding U20C A57U, the self-cleavage was found to be 0.07.
To U20C A57G belongs 1.19; to A22C U96C, 0.26.
On to G21U C131U, for which the self-cleavage came out at 1.41.
The figure for U20C G49A is 1.54; for C19U A57U it is 0.13; for C19U A57G it is 0.88.
The figure for U20A C71U is 1.22; for U20A U45A it is 1.05; for U20G U100C it is 1.06.
Take U20A U47A: the self-cleavage turned out to be 1.07.
The figure for U20A U47C is 1.31.
The figure for U20A U104C is 0.93; for U20A A42G it is 1.06; for C19U A50G it is 0.77.
On to U20A U134C, for which the self-cleavage amounted to 1.32.
To U20C G83A belongs 1; to U20C U81C, 1.13; to U20C U81A, 1.44.
As to C19U U115C, the self-cleavage turned out to be 1.79.
The figure for C19U G72C is 1.31; for C19U G72A it is 1.19; for C19U C133A it is 0.59.
The figure for U20A G114A is 1.4; for U20G U52A it is 1.36; for U20G U46C it is 2.3.
To G21A C145U belongs 0.32.
On to C19U U20C, for which the self-cleavage was found to be 0.93.
To G21U U45C belongs 1.44; to U20C C76U, 2.18; to U20C A142C, 1.88.
The figure for U20C A142U is 2.2.
Consider U20C A142G, for which the self-cleavage came out at 1.36.
The figure for U20C U73A is 1.56.
As for U20C U73C, the self-cleavage was 1.62.
The figure for U20G U47C is 0; for U20G U47A it is 0.51.
Consider U20A A50G, for which the self-cleavage was 1.2.
The figure for C19U A124G is 0.88.
To U20A G49A belongs 1.37.
On to C19U U47A, for which the self-cleavage stood at 0.69.
As for U20A C66U, the self-cleavage was 0.02.
In the case of C19U A43G, the self-cleavage came to 0.62.
With U20C C95A, the self-cleavage was 0.09.
Take U20C C95U: the self-cleavage came out at 0.27.
To U20C U115C belongs 1.57.
To C19G U62A belongs 0.03; to U20C U62A, 0.11.
For the variant U20C U62G, the self-cleavage is 0.03.
The figure for A22C A42G is 1.86; for U20G A141G it is 0.87; for G21A C38A it is 1.07.
On to U20A U96A, for which the self-cleavage stood at 0.05.

Values taken from the RNAGym collection of RNA variant scans (doi:10.7554/elife.90254).
